In US20140120091A1 (University of Washington, published 2014):
Numbering of substitutions follows the chain as printed. Names and notes keep the numbering of the source. Blank lines part the entries; values can stand above or below the binder they belong to.

Tests used:
[1] = target: T1, recombinant human CD40L (Peprotech, Catalog #310-02) (human, UniProt P29965 113-261); experiment: CD40L antigen binding ELISA normalised to IgG sandwich ELISA, COS supernatants
T1 construct: Bought reagent; also called rCD40L; immobilized CD40L
T1 sequence (looked up): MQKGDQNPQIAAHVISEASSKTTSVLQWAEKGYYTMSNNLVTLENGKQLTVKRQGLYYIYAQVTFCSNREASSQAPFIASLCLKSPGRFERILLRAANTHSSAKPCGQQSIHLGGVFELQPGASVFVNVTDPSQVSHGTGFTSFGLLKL
Method: Coated plates were washed twice in wash buffer: (PBS/0.05% Tween-20/0.01% Kathon), and blocked overnight at 4° C. in 200 ul/well PBS/2.5% BSA. Blocked plates were washed three times in wash buffer, and serial dilutions of each culture supernatant in (D-PBS, 0.2% BSA) added to successive wells in each plate: (20×, 40×, 80×, and 160× of each supernatant). Supernatant dilutions were incubated overnight at 4° C. Plates were washed three times in wash buffer, then incubated with HRP (horseradish peroxidase) conjugated goat anti-human IgG (Fc specific) (Catalog #109-036-008, Jackson Immunoresearch, West Grove, Pa.) at a 1:7,500 dilution in PBS for 1-2 hours at room temperature. Plates were washed 4-5 times in wash buffer, then 80 ul/well TMB Sureblue peroxidase substrate was added (Catalog #52-00-02, KPL Laboratories, Gaithersburg, Md.). Color was allowed to develop for 5-15 minutes, and reactions stopped by addition of 80 ul/well 1 N HCL. Plates were read using a Biotek SYNERGY® 2 (Biotek Instruments, Winooski, Vt.) plate reader at […], and data analyzed with Gen5 v2 software.

[2] = target: T2, human CD40 ligand (CD40L, CD154) expressed on human Jurkat cells (human, UniProt P29965 1-261); experiment: flow cytometry, serial dilutions of purified fusion protein on Jurkat cells, AF647 goat anti-human IgG detection
T2 construct: whole, on cells; also called CD40L on Jurkat cells; CD154 (CD40L) expressed on the surface of Jurkat cells
T2 sequence (looked up): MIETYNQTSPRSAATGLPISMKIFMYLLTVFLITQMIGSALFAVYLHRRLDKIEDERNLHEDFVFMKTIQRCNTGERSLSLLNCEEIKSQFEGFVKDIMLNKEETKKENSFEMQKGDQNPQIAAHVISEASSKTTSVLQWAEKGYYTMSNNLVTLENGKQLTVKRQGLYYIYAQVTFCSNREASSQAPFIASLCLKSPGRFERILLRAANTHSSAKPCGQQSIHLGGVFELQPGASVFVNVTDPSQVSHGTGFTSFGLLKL

[3] = target: T3, recombinant human PCSK9-his6 (AcroBiosystems, Catalog # PC9-H5223) (human, UniProt Q8NBP7 31-692); experiment: PCSK9 antigen binding ELISA, fusion protein immobilized, PCSK9-his6 in solution, HRP anti-his6 detection
T3 construct: Bought reagent; also called PCSK9-his6 antigen; PCSK9-his 6 antigen; not shown: his6 tag
T3 sequence (Q8NBP7 31-692 limits assumed): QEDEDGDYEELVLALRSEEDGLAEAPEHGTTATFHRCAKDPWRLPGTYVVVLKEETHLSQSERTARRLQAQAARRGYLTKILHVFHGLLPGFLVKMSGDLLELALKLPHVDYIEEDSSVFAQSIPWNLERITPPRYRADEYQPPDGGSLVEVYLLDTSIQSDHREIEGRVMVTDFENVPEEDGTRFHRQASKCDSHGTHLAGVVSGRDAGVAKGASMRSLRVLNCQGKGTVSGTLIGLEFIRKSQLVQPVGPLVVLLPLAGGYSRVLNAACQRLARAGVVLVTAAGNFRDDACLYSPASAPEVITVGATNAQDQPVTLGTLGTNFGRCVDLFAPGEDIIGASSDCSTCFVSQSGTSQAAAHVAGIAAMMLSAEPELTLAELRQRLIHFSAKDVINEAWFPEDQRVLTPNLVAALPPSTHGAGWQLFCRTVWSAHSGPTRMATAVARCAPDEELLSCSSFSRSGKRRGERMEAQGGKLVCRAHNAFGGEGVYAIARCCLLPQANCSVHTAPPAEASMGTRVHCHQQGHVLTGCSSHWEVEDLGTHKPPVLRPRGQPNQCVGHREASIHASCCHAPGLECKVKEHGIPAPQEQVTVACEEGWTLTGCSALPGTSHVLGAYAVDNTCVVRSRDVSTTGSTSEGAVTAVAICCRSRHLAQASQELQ

binding result [1]: binds
B1: CD40 EC-Ig fusion protein, mutant E64S K81H L121P (Fc fusion)
chain: EPPTACREKQYLINSQCCSLCQPGQKLVSDCTEFTETECLPCGSSEFLDTWNRETHCHQHHYCDPNLGLRVQQKGTSETDTICTCEEGWHCTSEACESCVPHRSCSPGFGVKQIATGVSDTICEPCPVGFFSNVSSAFEKCHPWTSCETKDLVVQQAGTNKTDVVCGP
notes: COS7 culture supernatant; not shown: human IgG Fc tail

binding result [1]: binds
B2: CD40 EC-Ig fusion protein, mutant E64Y K81T P85Y (Fc fusion)
chain: B1 chain with S44Y, H61T, P65Y, P101L
notes: COS7 culture supernatant; also called triple mutant E64Y K81T P85Y; not shown: human IgG Fc tail

binding result [2]: binds
binding result [3]: no binding
B3: hCD40-4s EC-mthIgG (Fc fusion)
chain: EPPTACREKQYLINSQCCSLCQPGQKLVSDCTEFTETECLPCGESEFLDTWNRETHCHQHKYCDPNLGLRVQQKGTSETDTICTCEEGWHCTSEACESCVLHRSCSPGFGVKQIATGVSDTICEPCPVGFFSNVSSAFEKCHPWTSCETKDLVVQQAGTNKTDVVCGPDLSGGGGSGGGGSGGGGSGGGGSTGLEPKSSDKTHTSPPSPAPELLGGSSVFLFPPKPKDTLMISRTPEVTCVVVDVSHEDPEVKFNWYVDGVEVHNAKTKPREEQYNSTYRVVSVLTVLHQDWLNGKEYKCKVSNKALPASIEKTISKAKGQPREPQVYTLPPSRDELTKNQVSLTCLVKGFYPSDIAVEWESNGQPENNYKTTPPVLDSDGSFFLYSKLTVDKSRWQQGNVFSCSVMHEALHNHYTQKSLSLSPGK
notes: also called human (h)CD40-SSSH-mthIgG1; hCD40mthIgG
